Reference: patent US20230218777A1 (Stanford University, published 2023)

Target: SARS-CoV-2 Spike protein (SARS-CoV-2, UniProt P0DTC2 14-1273)
Test: cell-based or functional assay

| Binder | neutralizing effect calculated by IC50 (SARS-CoV-2 pseudovirus on hACE2-293T cells), against parental R18 | neutralizing effect calculated by IC50 (SARS-CoV-2 pseudovirus on hACE2-293T cells), against parental R13 |
| --- | --- | --- |
| affinity-matured nanobody R18 (VHH) VHH: QVQLQESGGGLVQAGGSLRLSCAASGSISRDYDMGWYRQAPGKERKFVAGINVGGTTNYAGSVKGRFTISRDNAKNTVYLQMNSLKPEDTAVYYCAVHAVYTDGWEDGYLYPLPYWGQGTQVTVSS | ~100 times | – |
| affinity-matured nanobody R13 (VHH) VHH: QVQLQESGGGLVQAGGSLRLSCAASGTIFQVSSMGWYRQAPGKERKFVATIADGSSTNYAGSVKGRFTISRDNAKNTVYLQMNSLKPEDTAVYYCAALGQVSEYNSASYEWTYPYWGQGTQVTVSS | – | ~100 times |
